In patent publication US20210388081A1 (Memorial Sloan Kettering, published 2021):

Columns and labels:
[1] = molecular target: T1, FcRL2, overexpressed on 3T3 cells (UniProt Q96LA5 20-508, limits assumed); assay: phage clone on 3T3-FcRL2 cells
T1 construct: whole, on cells
T1 sequence (looked up): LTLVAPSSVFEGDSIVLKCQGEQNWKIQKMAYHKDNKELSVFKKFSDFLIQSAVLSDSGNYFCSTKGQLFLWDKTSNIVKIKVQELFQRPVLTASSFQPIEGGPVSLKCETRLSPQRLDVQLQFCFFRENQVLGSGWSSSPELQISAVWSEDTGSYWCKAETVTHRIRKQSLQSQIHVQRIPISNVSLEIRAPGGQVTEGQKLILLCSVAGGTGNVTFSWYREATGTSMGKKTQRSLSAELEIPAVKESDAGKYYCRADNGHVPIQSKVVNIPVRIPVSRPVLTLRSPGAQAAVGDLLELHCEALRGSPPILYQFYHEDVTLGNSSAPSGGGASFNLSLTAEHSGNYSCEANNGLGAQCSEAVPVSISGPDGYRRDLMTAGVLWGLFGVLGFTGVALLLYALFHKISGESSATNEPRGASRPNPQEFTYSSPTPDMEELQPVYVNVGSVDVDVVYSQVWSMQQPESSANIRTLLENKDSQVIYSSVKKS

[2] = molecular target: T2, FcRL4, overexpressed on 3T3 cells (UniProt Q96PJ5 20-515, limits assumed); assay: phage clone on 3T3-FcRL4 cells
T2 construct: whole, on cells
T2 sequence (looked up): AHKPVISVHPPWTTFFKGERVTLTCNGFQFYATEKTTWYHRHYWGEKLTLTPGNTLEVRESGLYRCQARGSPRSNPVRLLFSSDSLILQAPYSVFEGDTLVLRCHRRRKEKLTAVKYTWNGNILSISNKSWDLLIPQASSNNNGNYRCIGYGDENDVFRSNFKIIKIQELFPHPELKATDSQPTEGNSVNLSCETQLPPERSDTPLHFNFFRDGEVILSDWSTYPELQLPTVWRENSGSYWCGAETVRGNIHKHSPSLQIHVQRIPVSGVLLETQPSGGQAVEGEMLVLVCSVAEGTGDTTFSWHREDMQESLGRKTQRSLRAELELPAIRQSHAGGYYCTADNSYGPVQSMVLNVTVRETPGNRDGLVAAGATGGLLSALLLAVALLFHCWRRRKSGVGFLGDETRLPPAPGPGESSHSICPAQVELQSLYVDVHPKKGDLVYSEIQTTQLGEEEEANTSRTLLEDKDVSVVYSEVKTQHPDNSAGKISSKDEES

[3] = molecular target: T3, FcRL6, overexpressed on 3T3 cells (UniProt Q6DN72 20-434, limits assumed); assay: phage clone on 3T3-FcRL6 cells
T3 construct: whole, on cells
T3 sequence (looked up): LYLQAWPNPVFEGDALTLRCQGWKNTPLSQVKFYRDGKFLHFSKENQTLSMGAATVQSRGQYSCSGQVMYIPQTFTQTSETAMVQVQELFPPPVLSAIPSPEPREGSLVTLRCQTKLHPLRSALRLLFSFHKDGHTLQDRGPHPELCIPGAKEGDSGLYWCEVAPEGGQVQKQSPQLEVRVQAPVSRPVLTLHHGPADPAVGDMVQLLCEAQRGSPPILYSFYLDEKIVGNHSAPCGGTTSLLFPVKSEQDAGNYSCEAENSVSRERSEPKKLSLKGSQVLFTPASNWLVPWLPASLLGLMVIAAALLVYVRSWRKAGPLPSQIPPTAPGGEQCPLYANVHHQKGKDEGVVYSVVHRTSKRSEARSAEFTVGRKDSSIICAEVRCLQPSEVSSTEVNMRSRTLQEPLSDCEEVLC

[4] = molecular target: T4, FcRL3, overexpressed on 3T3 cells (UniProt Q96P31 18-734, limits assumed); assay: phage clone on 3T3-FcRL3 cells
T4 construct: whole, on cells
T4 sequence (looked up): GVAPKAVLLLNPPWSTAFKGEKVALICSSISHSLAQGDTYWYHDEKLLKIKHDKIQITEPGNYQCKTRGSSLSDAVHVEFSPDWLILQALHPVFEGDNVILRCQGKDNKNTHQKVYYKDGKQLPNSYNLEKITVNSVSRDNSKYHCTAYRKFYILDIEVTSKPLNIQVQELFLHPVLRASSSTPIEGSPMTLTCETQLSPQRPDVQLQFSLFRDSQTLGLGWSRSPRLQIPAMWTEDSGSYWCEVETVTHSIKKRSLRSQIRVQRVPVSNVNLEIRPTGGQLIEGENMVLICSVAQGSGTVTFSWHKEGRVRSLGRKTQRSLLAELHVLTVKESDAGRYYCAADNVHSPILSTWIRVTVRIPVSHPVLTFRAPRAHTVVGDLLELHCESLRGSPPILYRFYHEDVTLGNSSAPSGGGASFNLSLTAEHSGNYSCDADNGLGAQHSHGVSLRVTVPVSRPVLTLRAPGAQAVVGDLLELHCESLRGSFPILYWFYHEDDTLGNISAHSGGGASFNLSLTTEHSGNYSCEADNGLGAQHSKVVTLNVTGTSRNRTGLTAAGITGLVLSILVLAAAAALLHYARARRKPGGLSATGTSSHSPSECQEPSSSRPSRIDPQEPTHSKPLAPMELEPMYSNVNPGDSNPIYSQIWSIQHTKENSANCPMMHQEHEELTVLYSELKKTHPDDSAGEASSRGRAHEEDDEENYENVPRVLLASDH

SLAMF9 protein = SLAMF9 protein (UniProt Q96A28 19-236, limits assumed); assay: phage clone on SLAMF9 protein

Measured: binding result

Sequence of SLAMF9 protein (Q96A28 19-236 limits assumed): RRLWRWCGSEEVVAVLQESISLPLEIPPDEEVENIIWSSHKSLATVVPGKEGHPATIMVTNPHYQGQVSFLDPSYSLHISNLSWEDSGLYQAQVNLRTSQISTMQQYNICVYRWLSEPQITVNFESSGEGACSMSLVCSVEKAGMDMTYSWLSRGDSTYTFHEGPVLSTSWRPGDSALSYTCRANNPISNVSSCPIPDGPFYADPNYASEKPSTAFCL

B1: ET200-038 (scFv)
scFv: QSVLTQPPSVSGAPGQRVTISCTGSSSNIGAGFDVHWYQLLPGTAPKLLIYANSNRPSGVPDRFSGSKSGTSASLAITGLLAEDEADYYCQSYDSSLSGVVFGGGTKLTVLGSRGGGGSGGGGSGGGGSLEMAQVQLVQSGAEVKKPGSSVKVSCKASGGTFSSYAISWVRQAPGQGLEWMGGIIPIFGTANYAQKFQGRVTITADESTSTAYMELSSLRSEDTAVYYCARGASFDRHDNWGQGTLVTVSSTSGQAGQHHHHHHGAYPYDVPDYAS
notes: screened as phage clone; entry is VL-linker-VH-His tag-HA tag
no binding: all assays above

B2: ET200-069 (scFv)
scFv: QSVVTQPPSASGTPGQRVTISCSGSSSNIGSNYVYWYQQLPGTAPKLLIYSNNQRPSGVPDRFSGSKSGTSASLAISGLRSEDEADYYCAAWDDSLSGYVFGTGTKLTVLGSRGGGGSGGGGSGGGGSLEMAQVQLQQWGAGLLKPSETLSLTCAVYGGSFSGYYWSWIRQPPGKGLEWIGEINHSGSTNYNPSLKSRVTISVDTSKNQFSLKLSSVTAADTAVYYCARLYEGGYHGWGSWLSSDSWGQGTLVTVSSTSGQAGQHHHHHHGAYPYDVPDYAS
notes: screened as phage clone; entry is VL-linker-VH-His tag-HA tag; also called ET200-69
no binding: all assays above

B3: ET200-044 (scFv)
scFv: QSVLTQPPSVSVSPGQTATIACSGHKLGDKYASWYQQKSGQSPVLIIYQDNKRPSGIPERFSGSNSGNTATLTISGTQALDEADYYCQAWDSSTYVAFGGGTKLTVLGSRGGGGSGGGGSGGGGSLEMAQVQLQESGPGLVKPSETLSLTCVVSGGSISSSNWWSWVRQPPGKGLEWIGEIYHSGSPNYNPSLKSRVTISVDKSKNQFSLKLSSVTAADTAVYYCARMTTHTFGYDAWGQGTLVTVSSTSGQAGQHHHHHHGAYPYDVPDYAS
notes: as for B1
no binding: all assays above

B4: ET200-041 (scFv)
scFv: NFMLTQPHSVSGSPGKTVTISCTGSSGSIADNFVQWYQQRPGGVPTTVIFNDDERPSGVPDRFSGSIDTSSNSASLTISGLKTEDEADYYCQSYDNNNRGVFGGGTKLTVLGSRGGGGSGGGGSGGGGSLEMAQVQLVQSGAEVKKPGSSVKVSCKASGGTFSSYAISWVRQAPGQGLEWMGWMNPNSGNTGYAQKFQGRVTMTRNTSISTAYMELSNLRSEDTAVYYCARYYSYGYDWGQGTLVTVSSTSGQAGQHHHHHHGAYPYDVPDYAS
notes: as for B1
no binding: all assays above

B5: ET200-003 (scFv)
scFv: QSVLTQPPSVSVSPGQTASISCSGNKLGTKYVYWYQKRPGQSPVLVMYEDNQRPSGIPERFSGSNSGNTATLTIRGTQTVDEADYYCQAWDSDTFVVFGGGTKVTVLGSRGGGGSGGGGSGGGGSLEMAEVQLVETGGGVVQPGRSLRLSCAASGFTFSSYGMHWVRQAPGKGLEWVAVISHDGSNKYYADSVKGRFTISRDNSKDTLYLQMNSLRGEDTAVYYCARSNQWSGYFSFDYWGQGTLVTVSSTSGQAGQHHHHHHGAYPYDVPDYAS
notes: as for B1
no binding: all assays above

B6: ET200-040 (scFv)
scFv: QSVLTQPPSVSGAPGQRVTISCTGSSSNIGAGYDVHWYQQLPGTAPKLLIYGNSNRPSGVPDRFSGSKSGTSASLAITGLQAEDEADYYCQSYDSSLSGYVFGTGTKVTVLGSRGGGGSGGGGSGGGGSLEMAQVQLVQSGAEVKKPGASVKVSCKVSGYTLTELSMHWVRQAPGKGLEWMGGFDPEDGETIYAQKFQGRVTMTEDTSTDTAYMELSSLRSEDTAVYYCARYSGVYYDWGQGTLVTVSSTSGQAGQHHHHHHGAYPYDVPDYAS
notes: as for B1
no binding: all assays above

B7: ET200-042 (scFv)
scFv: QSVVTQPPSVSGAPGQTVTISCTGGSSNIGTGYFVNWYQQVPGKAPKLLILGNNNRPSGVPDRLSGSTSGTSASLAITGLQAEDEGTYYCQSYDSSLSGYVFGTGTKVTVLGSRGGGGSGGGGSGGGGSLEMAQVQLQQSGPGLVKPSQTLSLTCGISGDSVSTNSVAWHWIRQSPSRGLEWLGRTYYRSKWSNDYGVSVKSRITIIPDTSKNQFSLQLNSVTPEDTAVYYCARSSSWYQIFDYWGQGTLVTVSSTSGQAGQHHHHHHGAYPYDVPDYAS
notes: as for B1
no binding: all assays above

B8: ET200-045 (scFv)
scFv: QPVLTQPPSVSVAPGKTATITCGGNNIGSESVHWYHQKPGQAPVLVIYDDAGRPSGIPERFTGSNSGNTATLTISRVEAGDEADYYCQVWDRNSAQFVFGPGTKVTVLGSRGGGGSGGGGSGGGGSLEMAEVQLVQSGAEVKKPGASVKVSCKASGYTFTSYGISWVRQAPGQGLEWMGWISAYNGNTNYAQKLQGRVTMTTDTSTSTAYMELRSLRSDDTAVYYCARGVHLDWWGQGTLVTVSSTSGQAGQHHHHHHGAYPYDVPDYAS
notes: as for B1
no binding: all assays above
